In patent publication US20140206607A1 (INDIANA UNIVERSITY RESEARCH AND TECHNOLOGY, published 2014):
Numbered stars: 1 amine (or outer) side, 2 acyl side, 3 side chain; on linkers, the order of the positions; unused ones are H or OH. Square brackets hold non-standard residues; d marks the D form. Side chains are listed from the residue outwards. Ends that are not written are not given here. * marks the point of attachment. 40K‑TE PEG = 40 kDa PEG covalently bound via thioether, formed by reaction of the free thiol of the peptide (Cys side chain) with an iodoacetic-functionalized PEG; γGlu = O=C(O)[C@H](CCC(=O)[*:2])N[*:1]; Palmitoyl = CCCCCCCCCCCCCCCC(=O)*; Orn = NCCC[C@H](N)C(=O)O; Aib = CC(C)(N)C(=O)O

T1: GIP receptor (UniProt P48546 22-466)
T1 sequence (looked up): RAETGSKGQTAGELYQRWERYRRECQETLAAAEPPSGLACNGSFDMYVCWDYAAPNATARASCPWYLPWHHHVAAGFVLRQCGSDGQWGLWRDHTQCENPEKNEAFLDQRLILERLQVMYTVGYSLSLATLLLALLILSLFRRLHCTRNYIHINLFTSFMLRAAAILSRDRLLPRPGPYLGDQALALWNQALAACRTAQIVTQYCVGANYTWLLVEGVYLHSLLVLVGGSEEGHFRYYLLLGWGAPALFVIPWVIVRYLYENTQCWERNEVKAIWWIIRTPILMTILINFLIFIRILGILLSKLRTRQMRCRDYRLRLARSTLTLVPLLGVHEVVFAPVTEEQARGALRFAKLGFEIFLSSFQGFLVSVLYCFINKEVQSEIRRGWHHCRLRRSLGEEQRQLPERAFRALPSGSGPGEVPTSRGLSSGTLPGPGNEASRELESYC


Tests used:
Assay in all cases: cell-based or functional assay
GLP-1 receptor = GLP-1 receptor (UniProt P43220 24-463, limits assumed)
GIP receptor = target: T1, GIP receptor
glucagon receptor = glucagon receptor (UniProt P47871 26-477, limits assumed)
Sequence of glucagon receptor (P47871 26-477 limits assumed): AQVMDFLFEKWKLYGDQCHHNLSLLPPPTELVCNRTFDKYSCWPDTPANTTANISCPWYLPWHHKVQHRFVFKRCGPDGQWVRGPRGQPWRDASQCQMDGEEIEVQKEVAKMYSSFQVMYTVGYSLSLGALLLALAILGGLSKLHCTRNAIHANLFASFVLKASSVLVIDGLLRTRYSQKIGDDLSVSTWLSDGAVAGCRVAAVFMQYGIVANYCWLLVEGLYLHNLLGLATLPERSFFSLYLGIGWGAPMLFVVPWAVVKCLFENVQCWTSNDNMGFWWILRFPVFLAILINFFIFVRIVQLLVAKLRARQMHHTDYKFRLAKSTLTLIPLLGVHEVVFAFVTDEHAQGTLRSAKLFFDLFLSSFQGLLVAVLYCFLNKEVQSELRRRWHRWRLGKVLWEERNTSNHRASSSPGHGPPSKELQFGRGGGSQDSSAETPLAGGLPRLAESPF

Binder | EC50 (nM) at GLP-1 receptor (GLP-1 receptor) | EC50 (nM) at GIP receptor (GIP receptor) | EC50 (nM) at glucagon receptor (glucagon receptor)
H[Aib]QGTFTSDYSKYLDEKRA[Aib]EFVC(40K‑TE PEG)WLMDT-NH2 [peptide of SEQ ID NO: 15] | 0.071 nM | 316 nM | 1.1 nM
H[Aib]QGTFTSDYSKYLDERRA[Aib]EFVC(40K‑TE PEG)WLLDGGPSSGAPPPS-NH2 [peptide of SEQ ID NO: 35] | 0.085 nM | 16.1 nM | 1.18 nM
H[Aib]QGTFTSDK([γGlu-γGlu-Palmitoyl])SKYLD[Aib]RAAQDFVQWLM[Orn]T[Orn]E-OH (N-terminus assumed; SMILES CCCCCCCCCCCCCCCC(=O)N[C@@H](CCC(=O)N[C@@H](CCC(=O)NCCCC[C@H](NC(=O)[C@H](CC(=O)O)NC(=O)[C@H](CO)NC(=O)[C@@H](NC(=O)[C@H](Cc1ccccc1)NC(=O)[C@@H](NC(=O)CNC(=O)[C@H](CCC(N)=O)NC(=O)C(C)(C)NC(=O)[C@@H](N)Cc1c[nH]cn1)[C@@H](C)O)[C@@H](C)O)C(=O)N[C@@H](CO)C(=O)N[C@@H](CCCCN)C(=O)N[C@@H](Cc1ccc(O)cc1)C(=O)N[C@@H](CC(C)C)C(=O)N[C@@H](CC(=O)O)C(=O)NC(C)(C)C(=O)N[C@@H](CCCNC(=N)N)C(=O)N[C@@H](C)C(=O)N[C@@H](C)C(=O)N[C@@H](CCC(N)=O)C(=O)N[C@@H](CC(=O)O)C(=O)N[C@@H](Cc1ccccc1)C(=O)N[C@H](C(=O)N[C@@H](CCC(N)=O)C(=O)N[C@@H](Cc1c[nH]c2ccccc12)C(=O)N[C@@H](CC(C)C)C(=O)N[C@@H](CCSC)C(=O)N[C@@H](CCCN)C(=O)N[C@H](C(=O)N[C@@H](CCCN)C(=O)N[C@@H](CCC(=O)O)C(=O)O)[C@@H](C)O)C(C)C)C(=O)O)C(=O)O) [peptide of SEQ ID NO: 33] | 0.019 nM | 3.96 nM | 0.023 nM
H[Aib]QGTFTSDK([γGlu-Palmitoyl])SKYLD[Aib]RAAQDFVQWLKDGRG-NH2 (N-terminus assumed; SMILES CCCCCCCCCCCCCCCC(=O)N[C@@H](CCC(=O)NCCCC[C@H](NC(=O)[C@H](CC(=O)O)NC(=O)[C@H](CO)NC(=O)[C@@H](NC(=O)[C@H](Cc1ccccc1)NC(=O)[C@@H](NC(=O)CNC(=O)[C@H](CCC(N)=O)NC(=O)C(C)(C)NC(=O)[C@@H](N)Cc1c[nH]cn1)[C@@H](C)O)[C@@H](C)O)C(=O)N[C@@H](CO)C(=O)N[C@@H](CCCCN)C(=O)N[C@@H](Cc1ccc(O)cc1)C(=O)N[C@@H](CC(C)C)C(=O)N[C@@H](CC(=O)O)C(=O)NC(C)(C)C(=O)N[C@@H](CCCNC(=N)N)C(=O)N[C@@H](C)C(=O)N[C@@H](C)C(=O)N[C@@H](CCC(N)=O)C(=O)N[C@@H](CC(=O)O)C(=O)N[C@@H](Cc1ccccc1)C(=O)N[C@H](C(=O)N[C@@H](CCC(N)=O)C(=O)N[C@@H](Cc1c[nH]c2ccccc12)C(=O)N[C@@H](CC(C)C)C(=O)N[C@@H](CCCCN)C(=O)N[C@@H](CC(=O)O)C(=O)NCC(=O)N[C@@H](CCCNC(=N)N)C(=O)NCC(N)=O)C(C)C)C(=O)O) [peptide of SEQ ID NO: 36] | 0.003 nM | 0.47 nM | 0.028 nM
H[Aib]QGTFTSDK([γGlu-γGlu-Palmitoyl])SKYLD[Aib]RAAQDFVQWLMKTK[dE]-OH (N-terminus assumed; SMILES CCCCCCCCCCCCCCCC(=O)N[C@@H](CCC(=O)N[C@@H](CCC(=O)NCCCC[C@H](NC(=O)[C@H](CC(=O)O)NC(=O)[C@H](CO)NC(=O)[C@@H](NC(=O)[C@H](Cc1ccccc1)NC(=O)[C@@H](NC(=O)CNC(=O)[C@H](CCC(N)=O)NC(=O)C(C)(C)NC(=O)[C@@H](N)Cc1c[nH]cn1)[C@@H](C)O)[C@@H](C)O)C(=O)N[C@@H](CO)C(=O)N[C@@H](CCCCN)C(=O)N[C@@H](Cc1ccc(O)cc1)C(=O)N[C@@H](CC(C)C)C(=O)N[C@@H](CC(=O)O)C(=O)NC(C)(C)C(=O)N[C@@H](CCCNC(=N)N)C(=O)N[C@@H](C)C(=O)N[C@@H](C)C(=O)N[C@@H](CCC(N)=O)C(=O)N[C@@H](CC(=O)O)C(=O)N[C@@H](Cc1ccccc1)C(=O)N[C@H](C(=O)N[C@@H](CCC(N)=O)C(=O)N[C@@H](Cc1c[nH]c2ccccc12)C(=O)N[C@@H](CC(C)C)C(=O)N[C@@H](CCSC)C(=O)N[C@@H](CCCCN)C(=O)N[C@H](C(=O)N[C@@H](CCCCN)C(=O)N[C@H](CCC(=O)O)C(=O)O)[C@@H](C)O)C(C)C)C(=O)O)C(=O)O) [peptide of SEQ ID NO: 37] | 0.016 nM | 3.3 nM | 0.018 nM
H[Aib]QGTFTSDK([γGlu-γGlu-Palmitoyl])SKYLD[Aib]RAAQDFVQWLMDTK[dA]-OH (N-terminus assumed; SMILES CCCCCCCCCCCCCCCC(=O)N[C@@H](CCC(=O)N[C@@H](CCC(=O)NCCCC[C@H](NC(=O)[C@H](CC(=O)O)NC(=O)[C@H](CO)NC(=O)[C@@H](NC(=O)[C@H](Cc1ccccc1)NC(=O)[C@@H](NC(=O)CNC(=O)[C@H](CCC(N)=O)NC(=O)C(C)(C)NC(=O)[C@@H](N)Cc1c[nH]cn1)[C@@H](C)O)[C@@H](C)O)C(=O)N[C@@H](CO)C(=O)N[C@@H](CCCCN)C(=O)N[C@@H](Cc1ccc(O)cc1)C(=O)N[C@@H](CC(C)C)C(=O)N[C@@H](CC(=O)O)C(=O)NC(C)(C)C(=O)N[C@@H](CCCNC(=N)N)C(=O)N[C@@H](C)C(=O)N[C@@H](C)C(=O)N[C@@H](CCC(N)=O)C(=O)N[C@@H](CC(=O)O)C(=O)N[C@@H](Cc1ccccc1)C(=O)N[C@H](C(=O)N[C@@H](CCC(N)=O)C(=O)N[C@@H](Cc1c[nH]c2ccccc12)C(=O)N[C@@H](CC(C)C)C(=O)N[C@@H](CCSC)C(=O)N[C@@H](CC(=O)O)C(=O)N[C@H](C(=O)N[C@@H](CCCCN)C(=O)N[C@H](C)C(=O)O)[C@@H](C)O)C(C)C)C(=O)O)C(=O)O) [peptide of SEQ ID NO: 32] | 0.008 nM | 2.08 nM | 0.007 nM
